Target: T1, C-terminal domain (CTD) of ARF5-FLucC (Arabidopsis, UniProt P93024 793-902)
T1 construct: In the ARF-ARF tests the same CTD stood both as ARFCTD-FLucC and as ARFCTD-FLucN; one molecule for both; also called ARF5CTD-FLucC; auxin response factor 5; source: Arabidopsis mesophyll protoplasts, transfected, in living cells (SFLC) and in lysate (co-IP); not shown: FLucC (firefly luciferase aa 394-550)
T1 sequence (looked up): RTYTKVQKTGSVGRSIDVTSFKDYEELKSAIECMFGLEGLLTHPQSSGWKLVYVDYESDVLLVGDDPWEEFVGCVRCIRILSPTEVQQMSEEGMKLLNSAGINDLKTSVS
Assay: split reporter (BiFC, NanoBiT); SFLC in living Arabidopsis mesophyll protoplasts: Aux/IAA-FLucN or MYB30-FLucN co-expressed with ARFCTD-FLucC or Aux/IAA-FLucC for 6 hr; 10 µg of each construct, 2×10^4 cells, 96-well plate, D-luciferin; relative activity standardised against ARF5CTD-FLucC + IAA28-FLucN
Settings: partners not purified

B1: IAA28-FLucN (natural protein, Arabidopsis, UniProt Q9XFM0 1-175, looked up)
chain: MEEEKRLELRLAPPCHQFTSNNNINGSKQKSSTKETSFLSNNRVEVAPVVGWPPVRSSRRNLTAQLKEEMKKKESDEEKELYVKINMEGVPIGRKVNLSAYNNYQQLSHAVDQLFSKKDSWDLNRQYTLVYEDTEGDKVLVGDVPWEMFVSTVKRLHVLKTSHAFSLSPRKHGKE
notes: Arabidopsis transcription repressor IAA28; also called Aux/IAA-FLucN; source: Arabidopsis mesophyll protoplasts, transfected, in living cells; not shown: FLucN (firefly luciferase aa 1-398)
restored luciferase activity, fold over the negative control MYB30-FLucN + ARF5CTD-FLucC: ~350 fold

Source: article PMC3212559, “Large-Scale Protein-Protein Interaction Analysis in Arabidopsis Mesophyll Protoplasts by Split Firefly Luciferase Complementation” (PLoS ONE, 2011)
